# How the values were obtained:
# [1] = target: human aminopeptidase N (hAPN) ectodomain, residues 62-963, wild type (UniProt P15144); test: SPR; […], room temperature; […] (0.01 M HEPES, 0.15 M NaCl, 0.5% surfactant P20, 3 mM EDTA, pH 7.4); […]
# [2] = target: porcine aminopeptidase N (pAPN) ectodomain, residues 58-961, wild type (pig) (UniProt P15145); test: as above
# porcine aminopeptidase N (pAPN) ectodomain, residues 58-961, wild type (pig), sequence (P15145 58-961): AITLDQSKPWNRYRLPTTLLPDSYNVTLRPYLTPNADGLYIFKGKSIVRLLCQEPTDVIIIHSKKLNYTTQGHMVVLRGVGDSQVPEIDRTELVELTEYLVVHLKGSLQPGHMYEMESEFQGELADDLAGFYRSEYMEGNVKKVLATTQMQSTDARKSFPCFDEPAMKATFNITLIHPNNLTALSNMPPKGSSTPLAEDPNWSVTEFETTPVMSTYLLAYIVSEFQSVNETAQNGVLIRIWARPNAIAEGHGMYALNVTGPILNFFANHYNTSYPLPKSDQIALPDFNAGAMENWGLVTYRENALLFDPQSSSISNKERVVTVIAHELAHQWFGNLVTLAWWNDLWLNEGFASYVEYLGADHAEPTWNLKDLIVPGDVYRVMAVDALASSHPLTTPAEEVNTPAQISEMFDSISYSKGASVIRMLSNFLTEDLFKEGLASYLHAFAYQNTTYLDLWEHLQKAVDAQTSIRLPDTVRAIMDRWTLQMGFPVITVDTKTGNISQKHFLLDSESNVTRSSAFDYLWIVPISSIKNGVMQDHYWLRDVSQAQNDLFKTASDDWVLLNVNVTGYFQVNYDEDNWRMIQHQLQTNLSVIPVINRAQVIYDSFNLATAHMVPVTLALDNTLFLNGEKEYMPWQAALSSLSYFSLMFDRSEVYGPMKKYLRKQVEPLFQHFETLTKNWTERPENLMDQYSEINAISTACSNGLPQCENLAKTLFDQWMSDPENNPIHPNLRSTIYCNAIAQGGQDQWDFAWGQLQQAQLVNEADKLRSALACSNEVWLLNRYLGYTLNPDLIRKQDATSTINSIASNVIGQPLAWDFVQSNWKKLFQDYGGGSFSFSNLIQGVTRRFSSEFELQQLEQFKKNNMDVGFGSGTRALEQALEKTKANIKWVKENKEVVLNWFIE
# human aminopeptidase N (hAPN) ectodomain, residues 62-963, wild type, sequence (P15144 62-963): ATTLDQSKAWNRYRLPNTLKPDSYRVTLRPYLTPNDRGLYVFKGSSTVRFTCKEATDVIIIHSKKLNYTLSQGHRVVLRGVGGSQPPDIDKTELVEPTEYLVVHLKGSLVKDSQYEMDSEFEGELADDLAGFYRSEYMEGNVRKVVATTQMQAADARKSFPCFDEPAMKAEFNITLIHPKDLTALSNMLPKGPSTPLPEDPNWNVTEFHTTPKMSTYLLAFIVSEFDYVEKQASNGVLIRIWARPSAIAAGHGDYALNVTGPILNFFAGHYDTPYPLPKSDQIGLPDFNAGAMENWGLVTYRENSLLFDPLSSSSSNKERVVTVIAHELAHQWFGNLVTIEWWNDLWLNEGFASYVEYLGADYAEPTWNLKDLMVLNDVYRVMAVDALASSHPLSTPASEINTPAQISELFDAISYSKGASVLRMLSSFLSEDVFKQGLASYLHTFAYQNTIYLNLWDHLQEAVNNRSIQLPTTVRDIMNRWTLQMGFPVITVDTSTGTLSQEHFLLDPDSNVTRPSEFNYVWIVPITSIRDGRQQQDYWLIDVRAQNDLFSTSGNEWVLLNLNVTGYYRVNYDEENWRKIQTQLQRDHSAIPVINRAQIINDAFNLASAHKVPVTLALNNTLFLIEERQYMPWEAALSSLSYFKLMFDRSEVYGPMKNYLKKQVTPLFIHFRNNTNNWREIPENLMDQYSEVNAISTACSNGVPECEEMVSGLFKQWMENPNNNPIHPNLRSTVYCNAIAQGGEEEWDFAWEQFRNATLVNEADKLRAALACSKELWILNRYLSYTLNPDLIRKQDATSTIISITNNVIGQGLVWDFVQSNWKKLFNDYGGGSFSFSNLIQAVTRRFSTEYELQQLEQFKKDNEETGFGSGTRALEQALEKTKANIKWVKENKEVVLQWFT
substance,measurement,setting,value
"PDCoV RBD with mutation of residues F318, E320, R322, R357, and Y398",fold decrease in affinity against wild-type PDCoV RBD,[1],5 to 150 fold
same,fold decrease in affinity against wild-type PDCoV RBD,[2],5 to 150 fold

# Source: publication PMC8933513 (2022)
